The values that follow come from article PMC6049929, “Exchange of functional domains between a bacterial conjugative relaxase and the integrase of the human adeno-associated virus”.

In general, Kd refers to the equilibrium constant for the complex coming apart. Broadly, the stoichiometry N is a count of units in the complex or per binding partner.

Data set [1] addresses TrwC/Rep chimera (untagged) (plasmid R388 / human adeno-associated virus (AAV)) (UniProt P03132). The experiment in a line: fluorescence polarization. The settings on record: EMSA: 10 mM Hepes-KOH pH 7.5, 10 mM KCl, 3.3 mM MgCl2, 1 mM EDTA, 2.5 mM DTT, 400 ng poly(dI-dC), 15 mM (Rep68) or 75 mM (chimera) NaCl, room temperature 20 min.
Data set [2] addresses His-TrwC/Rep chimera (plasmid R388 / human adeno-associated virus (AAV)) (UniProt P03132). The experiment in a line: EMSA. The settings on record: EMSA: 10 mM Hepes-KOH pH 7.5, 10 mM KCl, 3.3 mM MgCl2, 1 mM EDTA, 2.5 mM DTT, 400 ng poly(dI-dC), 15 mM (Rep68) or 75 mM (chimera) NaCl, room temperature 20 min.
The target is the same in data set [3]. Put plainly: competition. The settings on record: EMSA: 10 mM Hepes-KOH pH 7.5, 10 mM KCl, 3.3 mM MgCl2, 1 mM EDTA, 2.5 mM DTT, 400 ng poly(dI-dC), 15 mM (Rep68) or 75 mM (chimera) NaCl, room temperature 20 min. Background: In EMSA bound probe runs differently from free probe, usually more slowly.
Data set [4] concerns the target TrwC/Rep chimeric protein (N-terminal relaxase domain of R388 TrwC fused to the C-terminal domain of AAV2 Rep68) (bacterial plasmid R388 (E. coli) | adeno-associated virus 2 (AAV2)) (UniProt Q47673). Put plainly: AUC; sedimentation velocity, 20°C, 492 nm; 3.32 μM TrwC/Rep chimera with 0.83 μM 5' 6-carboxyfluorescein oriTw(34-mer) ssDNA (protein/DNA 4:1); oligomer size from the theoretical S of a globular complex.

The target in data set [5] is His-Rep68 (human adeno-associated virus (AAV), UniProt P03132 1-536). Put plainly: EMSA; 100 ng protein, 15 mM NaCl; EMSA: 10 mM Hepes-KOH pH 7.5, 10 mM KCl, 3.3 mM MgCl2, 1 mM EDTA, 2.5 mM DTT, 400 ng poly(dI-dC), 15 mM (Rep68) or 75 mM (chimera) NaCl, room temperature 20 min; FP: 25 mM HEPES pH 7.0, 200 mM NaCl, 25 C; AUC: 25 mM Tris-HCl pH 7.9, 200 mM NaCl, 1 mM TCEP, 20 C. The following applies: protein: recombinant, tags: N-terminal His (pET15b, PreScission site).

“AGCGCACCGAAAGGTGCGTATTGTCTATAGCCCA [oriTw 34-mer (oriTw(25+8) plus 5' dA)]” yielded a Kd in data set [1] of 16 nM. For “GCGCACCGAAAGGTGCGTATTGTCTATAGCCCA [oriTw(25+8)]”, the results for the binding signal in data set [2] and in data set [3] were 49 % shifted and 24 % shifted, respectively. For “TrwC/Rep chimeric protein (N-terminal relaxase domain of R388 TrwC fused to the C-terminal domain of AAV2 Rep68) (from UniProt Q47673 2-293; P03132 209-536) (enzyme)”, the stoichiometry N in data set [4] was > 6 subunits.

B1: AAV ori RBSmut (dsDNA)
DNA 1: CTAGATGATGGAGTTGGCCACTCCCTCTCTCCTCCCTCCCTCCCTCACTG
DNA 2: TCGACAGTGAGGGAGGGAGGGAG
As to B1, the binding result in data set [5] (label: 32P 5' end, top strand) is listed as “no binding”. On to GCGCACCGAAAGGTGCGTATTGTCTATAGCCCA (ssDNA) [oriTw(25+8)], for which the binding result in data set [5] (label: 32P, inverted repeat IR2) is given as “no binding”.
